The test system of series [1] is CO[C@H](C)[C@](O)(C(=O)OCC1=CCN2CC[C@H](O)[C@@H]12)C(C)C. Briefly: purified protein. Format: biochemical, Zonocerus variegatus. Particulars: 0.2 mM NADPH, 100 mM glycine/NaOH pH 9, 37°C. An excerpt: (§1) photometric or radioassay N-oxygenation, initial rates on ZvPNO
Series [2] has as its system C/C=C1/C[C@@H](C)[C@@](C)(O)C(=O)OCC2=CCN3CC[C@@H](OC1=O)[C@@H]23. Briefly: purified protein. The series is classed as biochemical, Zonocerus variegatus. Particulars: 0.2 mM NADPH, 100 mM glycine/NaOH pH 9, 37°C.
Excerpt: as §1

In series [3] the test system is C[C@H]1C(=O)O[C@@H]2CCN3CC=C(COC(=O)[C@](C)(O)[C@]1(C)O)[C@H]23. Nature of the series: purified protein. Format: biochemical, Zonocerus variegatus. To be noted: 0.2 mM NADPH, 100 mM glycine/NaOH pH 9, 37°C.
Excerpt: as §1

Series [4] relates to CN1[C@@H]2CC[C@H]1CC(OC(=O)C(CO)c1ccccc1)C2. Nature of the series: purified protein. To be noted: 0.2 mM NADPH, 100 mM glycine/NaOH pH 9, 37°C.
A further series deals with T1, ZvPNO (Zonocerus variegatus, UniProt L0N8S9).
T1 construct: gene pno; full ORF (1242 bp, 47,793 Da subunit), no signal peptide predicted, C-terminal His6, pET28a, E. coli BL21(DE3), Ni-NTA; homodimer (91,200 Da)
Format: biochemical. To be noted: 0.2 mM NADPH; 100 mM glycine/NaOH pH 9; 37°C.
Excerpt: as §1

As to ZvPNO (Zonocerus variegatus), in series [1], the Km stood at 263.89 ± 10.06 µM, the Vmax came out at 0.149 µmol/min/mg, the kcat was 0.12 s⁻¹ and the specificity constant (kcat/Km) amounted to 454 M⁻¹ s⁻¹. In addition, in series [2], the Michaelis constant (Km) was determined as 1.08 ± 0.07 µM, the Vmax was determined as 1.24 µmol/min/mg, the kcat amounted to 0.99 s⁻¹ and the kcat/Km came out at 917000 M⁻¹ s⁻¹. Moreover, in series [3], the Km is 11.93 ± 0.76 µM, the maximal velocity (Vmax) is 1.2 µmol/min/mg, the kcat came to 0.96 s⁻¹ and the kcat/Km was determined as 80500 M⁻¹ s⁻¹. Moreover, in series [4], the Km worked out at 9.83 ± 1.04 µM, the Vmax is 0.461 µmol/min/mg, the kcat amounted to 0.37 s⁻¹ and the catalytic efficiency (kcat/Km) came to 37600 M⁻¹ s⁻¹.

phalaenopsine: the Km on ZvPNO was found to be 838 ± 77.4 µM.

For the origin of these results see article PMC3282741, “Independent Recruitment of a Flavin-Dependent Monooxygenase for Safe Accumulation of Sequestered Pyrrolizidine Alkaloids in Grasshoppers and Moths” (PLoS ONE, 2012).
